In the supplement of paper PMC10126150:
± gives the standard deviation of the averaged measurements.

These sequences were tested on ATP (assay: switch fluorescence ratio, 500 uM ATP over buffer (Cy3 cluster intensity, sum of 5 cycles each) (fold (ratio)); higher = stronger signal-on switching upon ATP binding; sequences stand for … in TCGTCGGCAGCGTCAGATGTGTATAAGAGACAGTTTTTTTTTTTTTTTTTTTTTTTTT…TC). Settings: aptamer strand: ATP DNA aptamer (quencher-CACCTGGGGGAGTATTGCGGAGGAAGG + anchor), 100 nM annealed; ATP concentration: 500 uM.
How it was run: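 Switching-strand clusters labelled with Cy3 on a modified Illumina MiSeq flow-cell were annealed to 100 nM quencher-labelled ATP aptamer, imaged in selection buffer, and re-imaged after 15 min with 500 uM ATP at 22 °C. This was done over five cycles with NaOH stripping and re-annealing in between. The fluorescence ratio is summed target-cycle over summed buffer-cycle Cy3 intensity per cluster, averaged per switch-domain sequence, excluding clusters outside 100-1000 RFU.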
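Note: ATP exposure 15 min at 22 °C before imaging.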

Row | Sequence | switch fluorescence ratio
1 | AGGGGGAAAT | 0.987 ± 0.035
2 | GAAATTTGAA | 1.01 ± 0.012
3 | AGGCCGAGGG | 0.985 ± 0.012
4 | TAGATTTCGT | 0.9797 ± 0.0052
5 | GTTTTCAGGT | 0.992 ± 0.037
6 | GTTTAAATTC | 1 ± 0.08
7 | TTGATCGGTG | 0.999 ± 0.023
8 | TGATTCATTG | 1.034 ± 0.01
9 | TGCGAAACTT | 1.07 ± 0.011
10 | GAGTCGAGTG | 1.01 ± 0.048
11 | GATGCGTACG | 1 ± 0.055
12 | GCAAGGGGGG | 1.09 ± 0.081
13 | AAGAATCTCT | 0.968 ± 0.045
14 | GCTGATGCGG | 0.999 ± 0.012
15 | AATGGGGCTT | 0.995 ± 0.03
16 | GTGTATTAGT | 0.9656 ± 0.003
17 | CTGGCTGTCT | 1.02 ± 0.036
18 | CATCGGGGTT | 1.01 ± 0.002
19 | TACTTTGCG | 1.01 ± 0.017
20 | GAGCAGCATT | 1.05 ± 0.014
21 | GCATGGTGAC | 1.058 ± 0.0028
22 | TCCAGGGGGT | 2.41 ± 0.044
23 | TATTGTGTGT | 0.987 ± 0.022
24 | GGGGCTAGCG | 0.99 ± 0.02
25 | AGGTGACAGT | 0.982 ± 0.021

Row | Sequence | switch fluorescence ratio
26 | TATGGGGGTC | 1.02 ± 0.015
27 | TCAAAGATAA | 0.98902 ± 2.8e-05
28 | ATAAGTATGT | 1 ± 0.018
29 | GAGGGTACGG | 1.037 ± 0.0092
30 | CCAGGGCAGC | 1.06 ± 0.079
31 | GGTTGTACGT | 0.984 ± 0.01
32 | ATCCGGTTTG | 0.982 ± 0.041
33 | CGGTGTGTGC | 1.04 ± 0.026
34 | TTTCAGGTGT | 2.15 ± 0.98
35 | ACGAAGGTCG | 1.03 ± 0.059
36 | GTGGGGGGCT | 0.984 ± 0.029
37 | ATCATTAGTA | 0.999 ± 0.021
38 | CGGACTAGTT | 0.994 ± 0.022
39 | AACAGGTGGG | 1.24 ± 0.023
40 | CTTTAAGGGC | 0.986 ± 0.022
41 | GCGAAAGTCG | 1.018 ± 0.0069
42 | CGGGCCCGTA | 0.961 ± 0.094
43 | AGGGGTTCTG | 1.01 ± 0.046
44 | AGGTGTATGT | 1.01 ± 0.061
45 | AACCAAAGGT | 1.014 ± 0.0017
46 | GTTTGAGATA | 0.971 ± 0.035
47 | CGAGTCTGCC | 1.04 ± 0.075
48 | TTAGTTGGAC | 1.03 ± 0.038
49 | GCTTCGGGGG | 1.06 ± 0.043
50 | AAGTGAGTAG | 1.004 ± 0.01

Row | Sequence | switch fluorescence ratio
51 | AAGTCAATGT | 1.015 ± 0.0027
52 | ATGTAATCAC | 1.04 ± 0.049
53 | ATTATTTTAC | 0.976 ± 0.036
54 | CCGGTGTTTG | 0.987 ± 0.021
55 | ATAGTCTTTT | 1.02 ± 0.034
56 | AGTATGAGGG | 1 ± 0.076
57 | CTTCGCACGG | 3.54 ± 0.37
58 | TTAAAATAGA | 1.07 ± 0.1
59 | GCGGCTTAAC | 1.02 ± 0.022
60 | TGGTATGGTT | 0.996 ± 0.011
61 | ATAATTTGAT | 0.983 ± 0.023
62 | TGATAAAGTT | 1.03 ± 0.034
63 | AACAGTCGCG | 0.968 ± 0.024
64 | GTGGCGGGGA | 1.02 ± 0.038
65 | GGGTGGCCTG | 1.03 ± 0.077
66 | TCGGATCATT | 0.9775 ± 0.0039
67 | CAGAAAGAGC | 0.969 ± 0.0086
68 | GGGTCGGGTA | 1.04 ± 0.017
69 | TGAGGGGCGG | 0.998 ± 0.039
70 | ATTCGTTTGT | 0.9869 ± 0.0038
71 | CGCTCTTTTG | 1.02 ± 0.061
72 | ATGAGAGCGG | 0.996 ± 0.096
73 | ACTGTGCACC | 1.05 ± 0.052
74 | CGTGGATGGT | 0.9933 ± 0.0032
75 | GGGTGGCAAG | 0.996 ± 0.03

Row | Sequence | switch fluorescence ratio
76 | AGGTTTGTAG | 0.983 ± 0.013
77 | GTTTGTACGT | 0.975 ± 0.038
78 | GTTGGGGGGT | 0.989 ± 0.02
79 | TCGATTGGGG | 0.9682 ± 0.0089
80 | TGAGGGGCTT | 1 ± 0.073
81 | TATGATGTAA | 1.02 ± 0.049
82 | TTTTTTCCCC | 1.04 ± 0.047
83 | TTCTGAATAT | 1.01 ± 0.024
84 | CATTGGTGTG | 0.985 ± 0.047
85 | CCAGCAGGGA | 1.37 ± 0.49
86 | TTATAAGCTT | 0.997 ± 0.021
87 | GTCTGGCAGT | 1.01 ± 0.043
88 | ATGCTAAAAG | 1.008 ± 0.0096
89 | CTAGCATGGG | 0.999 ± 0.029
90 | TACAATTTGA | 0.954 ± 0.018
91 | TCTCGGGGCG | 1 ± 0.055
92 | GATTTAGGGG | 0.961 ± 0.042
93 | GGATTGAATG | 0.972 ± 0.025
94 | CTATGTTTTG | 0.979 ± 0.017
95 | TTTCTGGTCT | 1.03 ± 0.012
96 | TGATATGTTT | 1.006 ± 0.002
97 | TGACGGGTTA | 1.02 ± 0.022
98 | GGGCGCGTAT | 1.03 ± 0.045
99 | AATAGTAGCG | 1.01 ± 0.054
100 | GGGGGGGAGG | 0.993 ± 0.029

Row | Sequence | switch fluorescence ratio
101 | TCGGCTATGG | 1.01 ± 0.011
102 | CTAGGCTAGG | 0.9885 ± 0.0012
103 | AGCTTAGGGG | 1.07 ± 0.11
104 | CTCTCAAGGT | 1.05 ± 0.018
105 | CGGGCGATGG | 1.08 ± 0.017
106 | TTCCGGTGTT | 1.05 ± 0.079
107 | GATGACTTTT | 1 ± 0.023
108 | TAGGATGGGT | 0.99 ± 0.017
109 | TGTGTTAGTT | 0.991 ± 0.024
110 | TAAGGCATTG | 0.996 ± 0.016
111 | TGGGGAAAGA | 1.01 ± 0.034
112 | AAGGGGGCCC | 0.99 ± 0.021
113 | CATGGAATAG | 1.07 ± 0.011
114 | TGTAAATACA | 1.15 ± 0.18
115 | TCATGAAGGA | 0.964 ± 0.018
116 | CTGGGTATTT | 0.999 ± 0.04
117 | GGGTGAAAGG | 0.996 ± 0.025
118 | ACTTTTTTT | 1 ± 0.0022
119 | CGGACTCCCA | 1.753 ± 0.014
120 | GTTCCGCGGT | 1.371 ± 0.0055
121 | GCGAGGCCGT | 1 ± 0.056
122 | GAAGGTTATG | 1 ± 0.015
123 | GTGTGGGAAG | 1.01 ± 0.028
124 | GACTGGTCGA | 0.996 ± 0.053
125 | ATCTTGTGGG | 0.9678 ± 0.0064

Row | Sequence | switch fluorescence ratio
126 | GGGGGTTAAG | 0.988 ± 0.029
127 | CACCATTAAT | 1.01 ± 0.017
128 | TTATTGAGTA | 1.005 ± 0.0048
129 | GGAAAGTTGG | 0.996 ± 0.012
130 | CCGGGGTCGG | 1.04 ± 0.057
131 | AGGGAACGAC | 1.03 ± 0.05
132 | CTCGGGATGG | 1.74 ± 0.98
133 | CTGTAGAAGA | 1.05 ± 0.032
134 | TTTCACAAAG | 1 ± 0.018
135 | CTTGGGGGGA | 0.997 ± 0.029
136 | TGCAGGAAAC | 1.05 ± 0.036
137 | CAGGGGGAAT | 1.1 ± 0.11
138 | TATACCGGTA | 1.022 ± 0.0067
139 | CGTGGGAATA | 0.9992 ± 0.0082
140 | TTCTGAAGC | 3.69 ± 1
141 | GTTTTCCGTC | 1 ± 0.013
142 | AATTGGTGGT | 0.965 ± 0.032
143 | TGATTGTTAT | 1.029 ± 0.0016
144 | TCAAGGGTCC | 0.996 ± 0.07
145 | AATGAGTGTT | 1.02 ± 0.042
146 | TTAAAACTCA | 1.04 ± 0.018
147 | GGATATATTG | 1.02 ± 0.024
148 | CAACGTGGGG | 0.99 ± 0.017
149 | AGCTTTTTGT | 0.947 ± 0.023
150 | GTGGGGGGGG | 0.995 ± 0.038

Row | Sequence | switch fluorescence ratio
151 | GTGGCAAAGA | 0.993 ± 0.023
152 | TTTTTTTCCA | 1.02 ± 0.013
153 | TAAAGGTTGT | 0.994 ± 0.055
154 | CTGTTAGGCG | 0.9676 ± 0.0092
155 | GCCCTGGTGT | 5.93 ± 0.54
156 | AGAAGTGATA | 0.976 ± 0.023
157 | ACCGTCTGTA | 1.014 ± 0.0058
158 | TGGGGGGACC | 1.03 ± 0.05
159 | TTGTGGTACG | 0.981 ± 0.041
160 | GTTACGGGGA | 1.02 ± 0.051
161 | GGGCTAAGAG | 1.05 ± 0.038
162 | CGCGCGGATT | 1.04 ± 0.034
163 | GCGTGTGGTG | 1.02 ± 0.043
164 | TGTTTGGTGC | 1.54 ± 0.8
165 | ATTTCACTTT | 0.9915 ± 0.0085
166 | AGGGGCGGTG | 0.994 ± 0.017
167 | TGATTAATTT | 0.984 ± 0.011
168 | CCTATAATAT | 1.05 ± 0.024
169 | TTATTGGGCC | 1.01 ± 0.026
170 | GTTGTGCTGG | 1.01 ± 0.018
171 | GGACGGGGAC | 1.12 ± 0.015
172 | TTTCATAGTT | 0.954 ± 0.017
173 | TACGGAGGGC | 1.02 ± 0.05
174 | AATAGAGGAG | 1.012 ± 0.007
175 | GGATGAGGGA | 0.957 ± 0.029

Row | Sequence | switch fluorescence ratio
176 | AGCCGGACGC | 1.066 ± 0.0075
177 | CGATTAGGTA | 1 ± 0.041
178 | CGGTTAGTTC | 0.946 ± 0.023
179 | GTGGCAAGTT | 0.97 ± 0.017
180 | TGGCACGTAT | 1.09 ± 0.03
181 | TTCCGACCGG | 1.28 ± 0.38
182 | AAGGAGTGAC | 1.05 ± 0.06
183 | GAGAGCAAGT | 1.14 ± 0.034
184 | CATTTAGGCT | 0.9997 ± 0.0058
185 | ATTCATTGTC | 1.09 ± 0.11
186 | ATTGTGGGGG | 0.991 ± 0.016
187 | TAACAGATGG | 1.01 ± 0.029
188 | TTGCTTTGTA | 0.943 ± 0.018
189 | ACGAAAGTCA | 1.052 ± 0.01
190 | CGTGACCAGG | 1.14 ± 0.029
191 | GGGTTTTAGG | 0.999 ± 0.032
192 | TCTGTTGAAT | 1.01 ± 0.072
193 | TTGATTCAAT | 1.17 ± 0.33
194 | CGGATCCCGA | 0.995 ± 0.018
195 | TTACTTATTT | 1.04 ± 0.035
196 | TCAGGGTAGG | 1.04 ± 0.033
197 | AATTGTGAAA | 1.01 ± 0.013
198 | TAGCTGTAAT | 1.02 ± 0.046
199 | CTAACGGTTT | 0.976 ± 0.028
200 | ATTAGTCCGG | 0.994 ± 0.03
